Target: VPAC1-C37/A-EYFP (Cys37/Ala mutant of VPAC1 fused with enhanced yellow fluorescent protein) (mouse (stated for the cDNA; the primers of Table 1 and residues 31-457 fit human VPAC1)) (UniProt P97751)
Test: radioligand binding; competition binding on the cell membrane fraction of CHO cells (50 ug protein/ml): 1 nM [125I]-VIP with or without unlabelled VIP, 60 min at 30°C at equilibrium; nonspecific binding with 2 uM unlabelled peptide; data calibrated by the EYFP fluorescence of the membrane fraction

Kd: 420 pM
Binder: HSDAVFTDNYTRLRKQMAVKKYLNSILN [vasoactive intestinal peptide]
